In the supplement of paper PMC10567573:

B1: FEM1A (parent)
chain: PCCSSSPEEPLNGESYESCCPTSR
B2: FBXO3 (parent)
chain: FIDTYSDVGRYIDHYAAIKKAWDD

Variants of: B1
Assay: protein stability index of a GFP-peptide fusion (GPS, HEK-293T) (PSI 1-6); higher = more stable
Settings: c terminus: a fixed tail appended
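Note: lentivirally expressed fusions sorted by FACS into six bins by GFP to DsRed ratio, PSI derived from sequencing read proportions per bin multiplied by bin number.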

Protein stability index, by site and new letter:
Y16: L 3.84, S 3.7, A 3.55, D 4.57, R 3.35, M 3.83, F 3.97, E 4.69, W 3.2, G 3.9, V 4.35, Q 4.55
G13: E 5.17, D 4.43, Q 4.43, L 3.63, P 4.01, F 3.26, W 2.79, S 3.75, I 3.42, T 3.75, M 3.29, C 3.54, Y 3.01
T22: W 3.78, I 3.38, Y 3.5, V 3.35, P 3.13, M 3.45, C 4.41, H 3.37, L 3.66, R 3.09, A 3.99, F 3.36, D 4.61, Q 4.21
S18: E 4, H 3.74, D 4.23, F 2.89, W 2.5, V 3.45, K 3.64, C 4.24
S4: I 3.81, K 3.65, A 3.72, H 4.21, Y 3.37, L 2.98, M 3.19, N 3.95, D 4.42, T 4.13, P 4.58, R 3.14
P1: A 4.21, S 3.54, T 3.6, C 1.83, V 3.84, M 3.67, F 3.17, N 3.96, Y 3.26, D 4.55, L 3.69
C19: E 4.54, V 3.89, D 4.5, L 3.28, P 4.08, H 3.57, K 4.25, Q 4.09, M 3.49, I 3.72, G 3.61
S5: T 3.9, E 4.24, Q 3.6, Y 2.6, F 2.48, K 2.85, W 3.02, H 4.12, N 3.47, V 4.45
N12: W 3.03, A 3.71, P 2.66, D 4.86, I 4.22, H 3.48, S 4.38, V 3.58, Y 3.96, K 2.97, G 3.88, F 3.01, C 3.43, M 3.98, L 4.04, Q 3.32
C20: V 3.47, Y 3.38, Q 3.54, W 3.69, I 3.54, S 4.14, D 4.12, P 3.06, N 4.35, E 4.24, K 3.31
L11: S 3.84, M 3.79, K 3.77, I 3.72, Y 3.55, P 4.08, H 4.2, T 4.11, Q 3.86, G 3.81, F 3.75
S6: F 3.13, E 4.01, K 3.18, M 3.57, G 3.53, W 3.27, N 3.81, Q 4.11, L 2.91, I 3.7, P 3.76, V 3.8, H 3.4, D 3.92, T 3.93
P7: M 3.11, E 3.93, L 3.07, I 3.03, A 3.34, N 3.14, W 2.44, F 3.51, Y 3.02, T 3.29
E17: H 3.44, F 3.55, I 2.83, W 1.72, R 2.67, T 3.56, V 2.87, S 2.51, P 3.7, C 4.12
E9: L 2.69, F 2.87, T 3.34, P 3.36, N 3.64, A 3.39, K 3.41, R 3.35, I 3.33, D 3.64, C 3.21
P21: H 3.71, E 4.19, V 3.1, K 3.81, S 3.09, T 3.76, C 3.92, D 5, Q 4.17
R24: M 4.6, T 4.97, S 5.27, Q 5.08, P 4.81, K 4.75, N 4.96, A 4.81, E 5.04, I 4.39, F 4.78, L 4.81, W 3.05
S15: H 3.92, C 3.47, V 3.81, D 4.61, P 4.14, W 2.85, G 3.88, Y 3.17, N 3.62, M 3.12, R 3.51, E 3.61
E14: T 2.94, A 3.77, Q 3.33, K 2.9, S 3.14, C 2.86, G 2.24, P 3.41
C3: S 5.22, Y 4.66, W 4.79, M 5.05, A 4.02, L 4.76, F 4.83, G 4.91, T 5.06, I 4.19, N 4.75
C2: T 5.23, P 5.66, S 4.21, E 4.77, K 4.65, M 4.98, H 4.79, Y 4.62, W 4.37, G 4.19, I 3.92, N 5.15, D 5.12
S23: A 4.35, V 3.07, C 4.2, Q 4.31, G 3.75, H 3.6, P 3.52, L 3.86, E 4.42, R 2.95, K 4.18, W 3.43, I 3.53, F 3.22, M 4.05, D 5, T 4.13
P10: D 4.17, E 3.7, N 2.96, H 3.46, F 3.5, A 4.07, W 2.25, V 3.73, C 3.46, R 3.82, K 3.5, S 3.91, L 3.41, T 3.1
E8: C 3.45, M 2.48, G 3.06, N 3.35, F 2.37, H 3.33, R 2.88, Y 2.65, L 2.81, Q 3.4, K 2.69, A 2.87

Variants of: B2
Assay: as above
Settings: c terminus: a fixed tail appended

Protein stability index: each site, then its substitutions
D23: N 2.29, F 1.87, E 2.31, I 3.3, K 1.7, G 1.35, Q 1.44, T 1.97, R 1.72, C 2.82, A 1.74, V 1.48, W 3.21, L 1.61, H 1.81, M 2.56, S 1.64, Y 2.04, P 2.1
W22: V 1.61, I 2.1, K 3, L 2.29, Q 1.26, S 1.75, M 1.64, Y 2.3, T 1.95, N 1.68, P 1.69, R 1.86
D24: H 2.7, F 1.67, S 1.44, K 1.58, V 2.6, T 2.51, M 1.82, E 2.4, W 2.07, P 2.28, Q 2.39, L 1.79, C 1.32, N 1.54, R 1.99, Y 2.19, G 1.61, I 2.86, A 2.83
